Publication PMC12247033, “Exploring the Stability and Substrate Profile of Transaminase from Silicibacter pomeroyi with Ancestral Sequence Reconstruction” (Chembiochem, 2025)

B1: N49 (synthetic construct) (protein)
chain: MSMSTITNHMPTAELQALDAAHHMHPFTTNNELAEKGARVITRAKGVWLTDSEGEEILDAMAGLWCVNIGYGRDELAEVAARQMRELPYYNTFFQTTHVPAIALAAKLAELAPGDLNHVFFAGGGSEANDTNIRMVRTYWAEKGKPEKNIIISRKNAYHGSTVGSASLGGMAGMHAQGGLPIPDIHHIDQPNWWAEGRPGDTGMTPEEFGLARARELEQAILELGEDRVAAFIAEPVQGAGGVIVAPDTYWPEIQRICDKYEILLIADEVICGFGRTGNWFGSQTMGIRPHIMTIAKGLSSGYAPIGGSIVCDEVAEVIIGGKCEFNHGYTYSGHPVAAAVALENLRILEEENIIDHVRNVAAPYLKEKWEALTDHPLVGEAKIVGMMGSIALTPDKATRAAFASEPGTVGYICRERCFANNLVMRHVGDRMIISPPLVITPEEIDTLIERARKSLDEAHAELKRQGLMKAAG
notes: pET22b(+), E. coli BL21(DE3), Ni-NTA purified
B2: N50 (synthetic construct) (protein)
chain: MSMSTITNHMPTAELQALDAAHHMHPFSTNNELAEEGVRVITRAKGVWLTDSEGEEILDAMAGLWCVNIGYGRDELAEVAARQMRELPYYNTFFKTTHVPAIALAQKLAELAPGDLNHVFFAGGGSEANDTNIRMVRTYWAEKGKPEKNVIISRKNAYHGSTVGSASLGGMAGMHAQGGIPIPDIHHINQPNWWAEGRPGDTGMTPEEFGLARARELEEAILELGEDRVAAFIAEPVQGAGGVIVAPDTYWPEIQRICDKYEILLIADEVICGFGRTGNWFGSQTMGIRPHIMTIAKGLSSGYAPIGGSIVCDEVAEVIIGGKCEFNHGYTYSGHPVAAAVALENLRILEEENIIDHVRNVAAPYLKEKWEALTDHPLVGEAKIVGMMGSIALTPDKATRAKFASEPGTIGYICRERCFANNLVMRHVGDRMIISPPLVITPEEIDEMFVRIRKSLDEAHAEILRQGLMKAAG
notes: as for B1
B3: Sp-ATA (Ruegeria pomeroyi DSS-3) (protein)
chain: MATITNHMPTAELQALDAAHHLHPFSANNALGEEGTRVITRARGVWLNDSEGEEILDAMAGLWCVNIGYGRDELAEVAARQMRELPYYNTFFKTTHVPAIALAQKLAELAPGDLNHVFFAGGGSEANDTNIRMVRTYWQNKGQPEKTVIISRKNAYHGSTVASSALGGMAGMHAQSGLIPDVHHINQPNWWAEGGDMDPEEFGLARARELEEAILELGENRVAAFIAEPVQGAGGVIVAPDSYWPEIQRICDKYDILLIADEVICGFGRTGNWFGTQTMGIRPHIMTIAKGLSSGYAPIGGSIVCDEVAHVIGKDEFNHGYTYSGHPVAAAVALENLRILEEENILDHVRNVAAPYLKEKWEALTDHPLVGEAKIVGMMASIALTPNKASRAKFASEPGTIGYICRERCFANNLIMRHVGDRMIISPPLVITPAEIDEMFVRIRKSLDEAQAEIEKQGLMKSAA
notes: wild type, pET22b(+), E. coli BL21(DE3), Ni-NTA purified (His-tag), homodimer

How the values were obtained:
purified protein [1] = substrate: C[C@H](N)c1ccccc1; assay: purified protein; format: biochemical, synthetic construct; conditions: co-substrate sodium pyruvate; 5 mM PLP; (S)-PEA 0.1-15 mM
purified protein [2] = substrate: C[C@H](N)c1ccccc1; assay: purified protein; format: biochemical, Ruegeria pomeroyi; conditions: co-substrate sodium pyruvate; 5 mM PLP; (S)-PEA 0.1-15 mM

Row | Protein | Km (purified protein [1]) [mM] | kcat (purified protein [1]) [s⁻¹] | Km (purified protein [2]) [mM] | kcat (purified protein [2]) [s⁻¹]
1 | B1 | 2.02 ± 0.19 | 1.10 ± 0.03 | – | –
2 | B2 | 6.22 ± 1.01 | 0.39 ± 0.03 | – | –
3 | B3 | – | – | 3.64 ± 0.31 | 6.33 ± 0.19
